Reference: patent publication US8617883

Target: Ephrin-B2 (human, full length coding sequence, expressed on mesenchymal stem cells nucleofected with pEphrin-B2/IRES2-eGFP) (human) (UniProt P52799)
Experiment: flow cytometry, Fc-chimera binding to Ephrin-B2-transfected MSCs against untransfected MSCs, FITC anti-human IgG1 detection

UniProt P52799, sequence (P52799 28-333): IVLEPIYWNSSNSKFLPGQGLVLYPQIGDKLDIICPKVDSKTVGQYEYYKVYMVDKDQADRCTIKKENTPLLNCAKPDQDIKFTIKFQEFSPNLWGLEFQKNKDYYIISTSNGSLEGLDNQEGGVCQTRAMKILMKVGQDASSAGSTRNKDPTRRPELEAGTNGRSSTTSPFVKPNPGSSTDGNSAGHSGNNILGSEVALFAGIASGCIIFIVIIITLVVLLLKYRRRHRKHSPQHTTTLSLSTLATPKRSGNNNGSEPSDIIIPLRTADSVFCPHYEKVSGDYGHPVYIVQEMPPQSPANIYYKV

Q: How did the increase in binding to transfected MSCs compared to normal cells turn out when “Eph-B4/Fc chimera protein (pre-clustered) (Fc fusion)” was run?
A: 22%
